The series can be described thus: label from the status in PepcDB records.

Turning to “GQSEDGLSVPKPLGIVEPWQMWLQRWVPGQPATELLITRPDLPEKIAALAHKIHSHSVPTTKTHTIATELQILGDRLREFSHQQPQWQTQIQHFIAQSEQLGEVLNKYPRPTTTIHRDFYPDQILVDGNHLWLVDLDLYCKGDPAVDLGNFIAHMTEYSLRTWG”, the protein production result is listed as “failed”.
For “GRDYVLSANLSLGMNKMKVDKLNGTDNVIWDQNNRWKSSYNDYCLKVGDQVGLIYGFVYDGLYSMDEFYFDPTNNLQAVPWGSTAAENGTSKDAPIMDADGVEHPKTIINQISGDSNSGIATLPGKVKFKDLNGDGYITEDDRTVIGNTNPKVQGGFGLSGQWKGFDFAMNFNFMLDFDVNNATAYQLSSSESNKNKFYNVLSTFADKGWRYTRDGDGECLYKCYYIDGSLDMYRELNEGRTLWNPTDVTKKITHSYFIEDGSFLRCQDLTVGYTLPGNLTSKWGISKARFYVSASNLFIITGYSGYDPEVDIQTGLTCGMDYNRYPRSRSFVLGTNITF” the value was “failed”; for “GRGTVTNEVRVAVEVPALPAAIASRLEVPAGAGGVYVERLRRLDGLPLSLDTSYLTVDVGRAVLAGDLRDRDVFGLIEEAAGARLGRAEVAVHAVNADPGTARLLGIGPGAAVFALERLTRLADGRPVDAESIRIRADRMA”, “failed”.
For “GSEEEEIPFRCFICRQAFQNPVVTKCRHYFCESCALEHFRATPRCYICDQPTGGIFNPAKELMAKLQK” the value was “not failed”.
In the case of “GSGKNLIMIQVEALQGFVVNKSINGKEITPNLNKWINKSLYFDNYFYQVAQGNTSDAEFMSLNSLYPAQSGAAYYTYAGNTFNSIPKDLGDKGYYTAALHGYNEGFWNRNVMYKSEKFDDFYGQTSYKNDEVVGMGLSDESFLNQSLAKMKTFKQPYFSFLITLSSHYPFNDTAGYEKYTMNKLDVGEYKDTLLGNYFEGIHYTDEQLGKFLDKLDKEGLTKNSIIVLYGDHFAIPKENINQLYSFEGIKDPTDLTWYEYQKVPMFIHFPDDEHKGVNHTYSGQMDIYPTIANLYNISNNYMFGEDILNVKDGDSTNVTFRNGSFTDGK” it was “failed”.
Turning to “GSSGSSGMGNSKSGALSKEILEELQLNTKFSEEELCSWYQSFLKDCPTGRITQQQFQSIYAKFFPDTDPKAYAQHVFRSFDSNLDGTLDFKEYVIALHMTTAGKTNQKLEWAFSLYDVDGNGTISKNEVLEIVMAIFKMITPEDVKLLPDDENTPEKRAEKIWKYFGKNDDDKLTEKEFIEGTLANKEILRLIQFEPQKVKEKMKNA”, the protein production entry is on record as “not failed”.
In the case of “GSSILDRAVIEHNLLSASKLYNNITFEELGALLEIPAAKAEKIASQMITEGRMNGFIDQIDGIVHFETREA” it was “not failed”.
In the case of “GTGTQPTIVIGGFVPDATEAVEFQRELFRRHGSVYYLNYARHGFSVEMFFAQLADLVEDLNRRGEKPVIFAISFGCSLLSRFLRERYSGEGLTVGGIVMTSP” it was “failed”; in that of “GVLILHGFTANLESVRALFGPLGRFDLKMATPLLRGHGAASPDELRGVTWREWLDDAENAFETLTGTGGKAVVIGHSMGALLALQLAARRPELVDSVILATPPVRLTSPLGPGRPLHFLAPLVSHVVDRWDMEARFADPGSAIIPKQYDWAPTKTILSMFELLEETMRITGRVRVPALILQARHESVVLPESAEILTRAIATPPEAKSIVWFDKTDHQIFCDCERKAAVDAVVSFVSKRFP”, “failed”.
For “HGILIRSSAFLEELADLTSLVVDKTGTLTHGSLRLQALRLADAAEEASVLRLAASLGAASSHPVSRALAALAAHDAYHPLSDIRERQGFGVVARTAAGEAALGRPELFQQLGIDASEVPEHEGPIAGIALDGRFLGWLLLADSVRAEAAEALADLRELGLGRQLLLTGDRRAVADAVAKQVGIRQLVAQALPEDKLRQVGAEIGSGFRPMVVGDGINDSLALKAGVVGVAMGAGGADIALASADIVLIGSDLRRLGTCVRLSR” the value was “failed”; for “HSGEDLPMVAPGNVRVNVVNSTLAEVHWDPVPLKSIRGHLQGYRIYYWKTQSSSKRNRRHIEKKILTFQGSKTHGMLPGLEPFSHYTLNVRVVNGKGEGPASPDRVFNTPEG”, “not failed”.
As to “HVLYSNILNRDVTISIYLPESYNQLVKYNVILCFDGLDFLRFGRIQRTYESLIKEARIDDAIIVGFHYEDVDKRREEFHPQGSRSHLTIQSVGKEILPFIDSTFSTLKVGNARLLVGDSLAGSIALLTALTYPTIFSRVAMLSPHSDDKVLDKLNQCANKEQLTIWHVIGLDEKDFTLPTNGKRADFLTPNRELAEQIKKYNITYYYDEFEGGHQWKDWKPLLSDILLYFLRKNTDDQHYE”, the protein production result is reported as “failed”.
In the case of “HVQLSLPVLQVRDVLVRGFGDSVEEALSEAREHLKNGTCGLVELEKGVLPQLEQPYVFIKRSDALSTNHGHKVVELVAEMDGIQYGRSGITLGVLVPHVGETPIAYRNVLLRKNG” it was “not failed”; in that of “IAGPGLGSGVRARVLQSFTVDSSKAGLAPLEVRVLGPRGLVEPVNMVDNGDGTHTVTYTPSQEGPYMVSVKYADEEIPRSPFKVKVLPTYDASKVTASGPGLSSYGVPASLPVDFAIDARDAGEGLLAVQITDQEGKPKRAIVHDNKDGTYAVTYIPDKTGRYMIGVTYGGDDIPLSPYRIRATQTGDASKCLATGPGIASTVKTGEEVGFVVDAKTAGKGKVTCTVLTPDGTEAEADVIENEDGTYDIFYTAAKPGTYVIYVRFGGVDIPNSPFTVMATDGEVTAVEEAPVNACPPGFRPWVTEEAYVPVSDMNGLGFKPFDLVIPFAVRKGEITGEVHMPSGKTATPEIVDNKDGTVTVRYAPTEVGLHEMHIKYMGSHIPESPLQFYVNYPNSGSVSAYGPGLVYGVANKTATFTIVTEDAGEGGLDLAIEGPSKAEISCIDNKDGTCTVTYLPTLPGDYSILVKYNDKHIPGSPFTAKITDDSRRCSQVKLGSAADFLLDISETDLSSLTASIKAPSGRDEPCLLKRLPNNHIGISFIPREVGEHLVSIKKNGNHVANSPVSIMVVQSEIGDARRAKVYGRGLSEGRTFEMSDFIVDTRDAGYGGISLAVEGPSKVDIQTEDLEDGTCKVSYFPTVPGVYIVSTKFADEHVPGSPFTVKISGEGRVKESITRTSRAPSVATVGSICDLNLKIPEINSSDMSAHVTSPSGRVTEAEIVPMGKNSHCVRFVPQEMGVHTVSVKYRGQHVTGSPFQFTVGPLGEGGAHKVRAGGPGLERGEAGVPAEFSIWTREAGAGGLSIAVEGPSKAEITFDDHKNGSCGVSYIAQEPGNYEVSIKFNDEHIPESPYLVPVIAPSDDARRLTVMSLQESGLKVNQPASFAIRLNGAKGKIDAKVHSPSGAVEECHVSELEPDKYAVRFIPHENGVHTIDVKFNGSHVVGSPFKVRVGEPGQAGNPALVSAYGTGLEGGTTGIQSEFFINTTRAGPGTLSVTIEGPSKVKMDCQETPEGYKVMYTPMAPGNYLISVKYGGPNHIVGSPFKAKVTGQRLVSPGSANETSSILVESVTRSSTETCYSAIPKASSDASKVTSKGAGLSKAFVGQKSSFLVDCSKAGSNMLLIGVHGPTTPCEEVSMKHVGNQQYNVTYVVKERGDYVLAVKWGEEHIPGSPFHVTVP”, “failed”; in that of “IDGIFIMDAEGHYLDVNPAICSAIGYTRDEFLALDWGVLSRGVDSGWAAASLARIVGGEPLREERTVWTRNGDQLTVELSAHLLPD”, “failed”.
For “IGGHVGYGVAKSYRGKGYATILLEKALDELKTLNVEVVLMTCNPLNFASQTVMKKCGGYQIESYIKKNGKPVHRYHIPNT” the value was “failed”; for “IGPPESWPQALKTAVRIMLTSQQPIWIGWGTELTYLYNDPYKSIIGGKHPWALGRPTSEVWSEIWEDIAPLLAKATSGHEGTYVEAQLLIMERNGFPEETYYTFSYSPIPTDDGSPGGIFCANTDDTQRVITERQLSLLRDLAASAAESRS”, “failed”; for “IKERVKMEVIGLEIPLISGNEDYTLAELISTYPLEDKDVIVIAETVVSKIEKNVILKNEITPSNEAMELSKKLGKEPEVVQVILDESNEIVKLGPNFIITETKHGFVCANSGVDESNTSKGIKPLPKNPDKSAEEIRMGIEKITGKKVGVIINDSMGRPFRKGSCGIAIGVSGVCGLWDRKGEKDLFGRELKTTEVGIADELAATASAVMGQSNEGIPLVIIRNAPVPFTNGTGKELIRKKEEDVFR”, “failed”.
For the sequence “IKHWVFDMDGTLTIAVHDFAAIREALSIPAEDDILTHLAALPADESAAKHAWLLEHERDLAQGSRPAPGAVELVRELAGRGYRLGILTRNARELAHVTLEAIGLADCFAEADVLGRDEAPPKPHPGGLLKLAEAWDVSPSRMVMVGDYRFDLDCGRAAGTRTVLVNLPDNPWPELTDWHARDCAQLRDLLSA”, the protein production result is on record as “failed”.
Consider “IKILKNFDEAIIVDAASLDPESLYQRTYAGKMTFGRVSDLGQFIRESEPEPDVRKSKGSMFSQAMKKWVQGNTDEAQEELAWKIAKMIVSDIMQQAQYDQPLEKSTKL”, for which the protein production result is on record as “failed”.
For “IKMAKDYGFCFGVKRAIQIAEKNQNSLIFGSLIHNAKEINRLEKNFNVKIEEDPKKIPKNKSVIIRTHGIPKQDLEYLKNKGVKITDATCPYVIKPQQIVESMSKEGYQIVLFGDINHPEVKGVISYATNQALVVNSLEELQEKKLQRKVALVSQTTKQTPKLLQIASYLVERCTEVRIFNTICNATSYNQKAALDLSKEVDIMIVVGGKTSSNTKQLLSIAKQHCKDSYLVEDENELELAWFKDKKLCGITAGASTPDWIIENVKQKISTI”, the protein production entry is listed as “failed”.
For “IKTRGRNLYSYEGKIGKAVDDIKSGQEGYVIVEGEYWRALALEDIKKNEDIVVVKREGMKLMVRKKVSDIETSRV” the value was “failed”.
As for “ILELIAKGKPASKIYAEIALMYEERHSGLRCSMLELKGGKLLHAGAPSLPKSYCKAVHGLEYGPQVGSCGTSTYTGKRVLVENIATDPKWADLKYVALPYGMRSCWSEPIKSSSGKVLGAFGMYHDYPALPNEQESNDLTSAARLAGIVMEREQNQKRIQ”, the protein production result is on record as “failed”.
In the case of “ILGWVEFTRLEPWGIKTPARIDTGANTSSMSARDINVFKRNGKTWVRFTFDFKKGTAERSIEIERPLVRMVKIKQHDGPSQERPVISMEICLADEIREAEFDLIDRRALNYPVLLGRKALAGYVVVDPARAYLTKAVCGHTKKKKKGSEPADPGQQHE” it was “failed”.
In the case of “ILKEYSKLLSFNAQKYYLVGAEKEDLVQEGILGLLKAIKFYDETKSSFSSFAFLCIRREMISAIRKANTQKHMVLNEALKTNAILEDSAYFDDEGHNINNYKSSESNPEEAYLLKEEIEEFKKFSENNFSKFEKEVLTYLIRGYSYREIATILSKNLKSIDNTIQRIRKKSEEWIK” it was “failed”; in that of “ILTTENQGVFTITLNRIDKKNALTNDMYKQLCQYFAYAEQTSSIHCVVIQGNEQCFCAGNDLHDFIQCSADDELAALAFVKVLSEFTKPLVAGVAGVAVGIGTTLLLHCDMVIAANNSKFKLPFTQLGLCPEAGSSLLLTQKVGPNKAFELMVLGQTFNAEQALSYGITNQTCQPDELLALTSDVAQAISNLPVESVMTSRRLIRQANKLALSQVISEESQAFSHLVKSEECKNILAKFFK”, “failed”; in that of “INDKLLVQTIKKALFGLRYQRAKKDIQEKDTMISVVADNSPAGICLFGDNGIIYANKALETITGYSKSELIGGSLLDIIQSDSKRLSERINLSLDSACNLEKYSEIRIKTKTGKIRYIDLIANSVEFKEGYVCIANMIDV”, “failed”.
Regarding “INKLYAINANLEESELRFRSAFNSAAIGMAIVSLEGMWLKVNQSLCQIVGYSEEELLETNFQSITHPEDLELDLGYVRQLLEGDIRFYHMEKRYIHKNGSVIWILLSASLIRDLDNKPLYFISQIQNID”, the protein production entry is “failed”.
In the case of “INQQEDSSESCWNCGRKASETCSGCNTARYCGSFCQHKDWEKHHHIC” it was “not failed”.

The values above are taken from a protein production outcome set (Wang et al. 2014).
